Measurements reported in patent US20090197812.

Experiments:
Human I-κBα = biological target: T1, Human I-κBα
T1 chain: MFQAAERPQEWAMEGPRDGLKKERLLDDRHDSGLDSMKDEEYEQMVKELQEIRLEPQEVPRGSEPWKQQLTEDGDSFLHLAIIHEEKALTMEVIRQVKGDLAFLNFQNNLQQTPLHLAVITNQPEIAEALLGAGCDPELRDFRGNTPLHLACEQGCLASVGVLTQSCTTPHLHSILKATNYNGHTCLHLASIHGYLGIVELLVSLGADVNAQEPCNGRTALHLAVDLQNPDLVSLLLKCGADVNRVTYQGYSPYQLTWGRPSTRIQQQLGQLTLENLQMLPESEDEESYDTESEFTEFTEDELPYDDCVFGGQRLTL

[1] = biological target: mutant I-κBα, the phosphorylation sites of which were modified

B1: transglutaminase (guinea pig liver, Sigma) (protein)
chain: AEDLILERCDLQLEVNGRDHRTADLCRERLVLRRGQPFWLTLHFEGRGYEAGVDTLTFNAVTGPDPSEEAGTMARFSLSSAVEGGTWSASAVDQQDSTVSLLLSTPADAPIGLYRLSLEASTGYQGSSFVLGHFILLYNPRCPADAVYMDSDQERQEYVLTQQGFIYQGSAKFINGIPWNFGQFEDGILDICLMLLDTNPKFLKNAGQDCSRRSRPVYVGRVVSAMVNCNDDQGVLQGRWDNNYSDGVSPMSWIGSVDILRRWKDYGCQRVKYGQCWVFAAVACTVLRCLGIPTRVVTNFNSAHDQNSNLLIEYFRNESGEIEGNKSEMIWNFHCWVESWMTRPDLEPGYEGWQALDPTPQEKSEGTYCCGPVPVRAIKEGHLNVKYDAPFVFAEVNADVVNWIRQKDGSLRKSINHLVVGLKISTKSVGRDEREDITHTYKYPEGSEEEREAFVRANHLNKLATKEEAQEETGVAMRIRVGQNMTMGSDFDIFAYITNGTAESHECQLLLCARIVSYNGVLGPVCSTNDLLNLTLDPFSENSIPLHILYEKYGDYLTESNLIKVRGLLIEPAANSYVLAERDIYLENPEIKIRVLGEPKQNRKLIAEVSLKNPLPVPLLGCIFTVEGAGLTKDQKSVEVPDPVEAGEQAKVRVDLLPTEVGLHKLVVNFECDKLKAVKGYRNVIIGPA
- polymerization of I-κβα on 4-12% NuPAGE (Human I-κBα): both the intact I-κBα and the mutant I-κBα, the phosphorylation sites of which were modified, were polymerized to high-molecular weight polymers, by transglutaminase
- polymerization of I-κβα on 4-12% NuPAGE [1]: both the intact I-κBα and the mutant I-κBα, the phosphorylation sites of which were modified, were polymerized to high-molecular weight polymers, by transglutaminase
